According to the DeepSol protein solubility set:

Assay: soluble on expression in E. coli; label from the status in PepcDB or PDB records

| Sequence | soluble on expression in E. coli |
| --- | --- |
| MSLGKPEFYDFCVHAVPDGANAVEELSSLSRHLGYSGIALANHSDKLPSKKPVLPSIEGFEVFRGIELVEENPSKLHGLVGKFRSSMDVLIVHGGSEAVNRAALENPRVDILNHPAFDKSSGLNQVLAKAAAENGVAIGITLRPLLHSRGSRRIRMLSDLKANLELARKYDVPLVLCSDAMSCYDLRSPMETLAFAEVCGLEEDEALDALSTVPKKIIKKNRPGPGYVREGIEVLEGEGHHHHHH | not soluble |
| MENEQQQAQTAPSCRAGCGFFGASATEGYCSQCFKNTLKRQQDTVRLTSPVVSPSSMAATSSALKSEPSSVDMCMKAAVSVSDETAKMDCEDIINVCDQINDDSVTVAESTAPTTITVDVPVPVKKANRCHMCKKRVGLTGFSCRCGGLYCGDHRYDQAHNCQFDYKTMERETIRKNNPVVVSDKVQRI | soluble |
| VRQLLGLEGPIKRVECFDISHTMGEATVASCVVFDAVGPVRSQYRRYNITGITPGDDYAAMRQAIERRFRRAVEEDKQGERPDVLFIDGGAGQLAQAKMALNAVGVESVLLVGVSKGEERRAGHETLIMLDGQELHPGAASPALQFIQQVRDEAHRFAI | not soluble |
| SIIPSLEELDSLKYSDLQNLAKSLGLRANLRATKLLKALKGYIKHEARKGNENQDESQTSASSCDETEIQISNQEEAERQPLGHVTKTRRRCKTVRVDPDSQQNHSEIKISNPTEFQNHEKQESQDLRATAKVPSPPDEHQEAENAVSSGNRDSKVPSEGKKSLYTDESSKPGKNKRTAITTPNFKKLHEAHFKEMESIDQYIERKKKHFEEHNSMNELKQPINKGGVRTPVPPRGRLSVASTPISQRRSQGRSCGPASQSTLGLKGSLKRSAISAAKTGVRFSAATKDNEHKRSLTKTPARKSAHVTVSGGTPKGEAVLGTHKLKTITGNSAAVITPFKLTTEATQTPVSNKKPVFDLKASLSRPLNYEPHKGKLKPWGQSKENNYLNQHVNRINFYKKTYKQPHLQTKEEQRKKREQERKEKKAKVLGMRRGLILAED | not soluble |
| MNKPLTPSTYIRNLNVGILRKLSDFIDPQEGWKKLAVAIKKPSGDDRYNQFHIRRFEALLQTGKSPTCELLFDWGTTNCTVGDLVDLLVQIELFAPATLLLPDAVPQTVKSLPP | soluble |
| MSLDVRIVDIDSEKPPEAKRCFLLSDVHGRADDIDTKYFNYDFDFLFFAGDMSNKSKYHEIKSFKKWINKMKAKYKIVVAGNHDLVFDREEFNDIIIGNHTAQEIRDLILKDKNIIYLEHEEITIEGIKIFGTPLSNIRIHQAFKEPYEDENDPHEEYLFFSIPDSTNIVLSHGVMKGYLDKEPNSRCKGSYGLRHAIDRVKPDLLICGHMHGCQGHTTHNNTTVILPSFCKRDKFGEETNNPYIIDIIPKLSLRMSIWKKSEKIPKMLKMNFPNVFFYLIFLILKKIWREELFVFEFYHDGEGHHHHHH | soluble |
| MGSDKIHHHHHHLSSPQYRINMQKYVFRIHPLNTYQLSFFPNYEVNMYKKLNPMIGDRVYRSKGLVMHVGVMVDRDLVAHNSPDNNVEVISMEHFSQGKKVELKRSIGVDPTALKAQLQRISEENRRYCPISFNCEHFANELLGTKDGSEQLLAALLVGSFGLTCKNKWLGLATAGATGLLLCNGLRKYSTT | not soluble |
| MTSSPELARAVAATLARHVTDVVICPGSRNSPLSLELIARDDIRVHTRIDERSAAFLALGLARSSKRHVAVVTTSGTAVANCAPAMIEAAYSHTPLIMVSADRPERLHGTGANQTIEQRGIFNVVDTDHVVDITDLNSISFARNVIHINVALDVPLVDVLPEV | not soluble |
| MGSDKIHHHHHHMKMKEFLDLLNESRLTVTLTGAGISTPSGIPDFRGPNGIYKKYSQNVFDIDFFYSHPEEFYRFAKEGIFPMLQAKPNLAHVLLAKLEEKGLIEAVITQNIDRLHQRAGSKKVIELHGNVEEYYCVRCEKKYTVEDVIKKLESSDVPLCDDCNSLIRPNIVFFGENLPQDALREAIGLSSRASLMIVLGSSLVVYPAAELPLITVRSGGKLVIVNLGETPFDDIATLKYNMDVVEFARRVMEEGGIS | not soluble |
| MAHHHHHHMKPTPLRGQPGLSRNGEGHNDRATSAASHLWARGARTQSPRRGQKESIATRTAVNNGGGPTHAATTRRSAQASRRTSTRYFKLPDAIAEKGEGAFSPTEPDCGATVLRHPASGRRHEEGEQGGSGIVCDVGVGAEKVAGGRLTTLRRTRGQPNKEASRTAFSMATDDVAPPTRLQYARMPRPMSQMNRTPLGVAVLGLQKIAARSETKRTRPLKRKRRINLPAAGPNGSDGLHSDLRG | soluble |
| MGSDKIHHHHHHMVKKIMLHGATDYGSSNYGDYLYGEIVYDLLESKGYEVSFYNPSDFFQMYLKEYRQKQSFTKKQADAILYIPGGYFGEGHNARFRDNLIQFKRFLPLGIWASYFKKPIGVLGIGAGPNNDSLMNYGIKRIINHAQFITVRDRESFDSLKHLSPSAPVHETFDLIISSKLREEKTEQLCQLKREAKDKKIILVHYNHSKKALEKFAESISLFLENNPNYYVVVTSDSILPYEDAYYQEFRKLVRTEDCFQFKYHSPAEMTSLLKMVDVVLTCKLHVGVVATCFNKSVIAIACHPEKTARYYGAIGELQRCESLFDSSVNSIVKKLETFHLKPITIPSELVLKARSSLDYLDLFLEGLVRES | not soluble |
| SDPATCPIIPGCETTIEISKGRTGLGLSIVGGSDTLLGAIIIHEVYEEGAACKDGRLWAGDQILEVNGIDLRKATHDEAINVLRQTPQRVRLTLYRDEAPYKEEEVCDTLTIELQKKPGKGLGLSIVGKRNDTGVFVSDIVKGGIADADGRLMQGDQILMVNGEDVRNATQEAVAALLKCSLGTVTLEVGRIKAGPFHSERRPSQSSQVSEGSLSSFTFPLSGSSTSESLESSSKKNALASEIQGLRTVEMKKGPTDSLGISIAGGVGSPLGDVPIFIAMMHPTGVAAQTQKLRVGDRIVTICGTSTEGMTHTQAVNLLKNASGSIEMQVVAGGDVSVVTGHQQEPASSSLSFTGLTSSSIFQDDLGPPQCKSITLERGPDGLGFSIVGGYGSPHGDLPIYVKTVFAKGAASEDGRLKRGDQIIAVNGQSLEGVTHEEAVAILKRTKGTVTLMVLS | soluble |
| MSLRGALAGMLALGCLTTSTLAFERWTLEARGKSGYDAPKLEWVEGKTINEIKNPTIQYALPKFEGDVFWDTINAKPVVPDSIYGEFVQYGYELFVNTQAVIGPEVADPNMRYSGNNLSCNSCHLGAGTAKYAAPLVDNHANFPQYRNRENSLGTMAARVNGCMQRSMNGYPLPAEGKEMKAFLAYIHWLGQGIPVGAKIEGRSLKTVDRKMVQQNAADVKNGAEVYARDCASCHGAEGEGLRRESKDGKPAGYEFPPLWGSDDTYNTGAGMYRTLKAADFIKSTMPKGAPTLSDKDAYDVAAFINDYSHYRTVKLNRQNDFVDPKVRVPDHDQPGPYGPEGSYIFPDEGKTQMDYKVGPYKGIIKQKPAAKEGHHHHHH | not soluble |
| MGSDKIHHHHHHMSKNVLIVSASPRKGGNSDLLCDQFIQGVLESKNQVEKIFLKDKDINYCTGCGACYEKEANCSQTDDMGEILEKMIGADVIVLATPVYFYTMNAQMKTMIDRTCSRYTEICDKDFYFIVTAADENVADMERTIEGFRGFTSCLNGSKEKGIVYGVGAWNVGDIKGSKAMKQAYEMGKLA | not soluble |
| MSGQNNVVGVHYKVGRRIGEGSFGVIFEGTNLLNNQQVAIKFEPRRSDAPQLRDEYRTYKLLAGCTGIPNVYYFGQEGLHNVLVIDLLGPSLEDLLDLCGRKFSVKTVAMAAKQMLARVQSIHEKSLVYRDIKPDNFLIGRPNSKNANMIYVVDFGMVKFYRDPVTKQHIPYREKKNLSGTARYMSINTHLGREQSRRDDLEALGHVFMYFLRGSLPWQGLKAATNKQKYERIGEKKQSTPLRELCAGFPEEFYKYMHYARNLAFDATPDYDYLQGLFSKVLERLNTTEDENFDWNLL | soluble |
